Reference: PMC4604457
pEC50: −log10 of the molar value.

Assays:
[1] = target: N-MBP-ORF3-A647 (not stated | Hepatitis E virus genotype 1) (UniProt O90299); test: MST
[2] = target: N-MBP-ORF3-A647 (not stated | Hepatitis E virus genotype 1) (UniProt O90299); test: MST; as a7 but at 35 °C (temperature series), pH 7
[3] = target: N-MBP-ORF3-A647 (not stated | Hepatitis E virus genotype 1) (UniProt O90299); test: MST; as a7 but at pH 6.0 (pH series), 30 °C
[4] = target: N-MBP-ORF3-A647 (not stated | Hepatitis E virus genotype 1) (UniProt O90299); test: MST; pH 7
[5] = target: N-MBP-ORF3-A647 (not stated | Hepatitis E virus genotype 1) (UniProt O90299); test: MST; as a7 but at 41 °C (temperature series), pH 7
[6] = target: N-MBP-ORF3-A647 (not stated | Hepatitis E virus genotype 1) (UniProt O90299); test: MST; as a7 but at 37 °C (temperature series), pH 7
[7] = target: N-MBP-ORF3-A647 (not stated | Hepatitis E virus genotype 1) (UniProt O90299); test: MST; as a7 but at pH 8.0 (pH series), 30 °C

N-MBP-X (domain or fragment) was tested, and the pEC50 [1] was 8.25.
N-MBP-Plp (domain or fragment) showed a pEC50 [2] of 8.55, a pEC50 [1] of 9.52 and a pEC50 [3] of 7.72. The pEC50 [4] was 8.82, the pEC50 [5] was 7.72 and the pEC50 [6] was 7.80. For the same substance, the pEC50 [7] was 8.22.
N-MBP-Met (domain or fragment) showed a pEC50 [1] of 7.47.
Substance N-MBP-Hel (domain or fragment) has a pEC50 [1] of 7.06.
In the case of N-MBP-Pvx (domain or fragment), the pEC50 [1] was 8.80.
